Assay [1] addresses T1, human FcγRI extracellular domain protein (human, UniProt P12314 16-292).
T1 construct: extracellular domain; also called hFcγRI; CD64
The experiment in a line: SPR, Biacore T100, FcγR extracellular domain immobilised.

In assay [2] the target is T2, human FcγRIIB extracellular domain protein (human, UniProt P31994 43-217).
T2 construct: extracellular domain; SPR: His-tagged, immobilised; ELISA: biotinylated; also called hFcγRIIB; CD32b
T2 sequence (looked up): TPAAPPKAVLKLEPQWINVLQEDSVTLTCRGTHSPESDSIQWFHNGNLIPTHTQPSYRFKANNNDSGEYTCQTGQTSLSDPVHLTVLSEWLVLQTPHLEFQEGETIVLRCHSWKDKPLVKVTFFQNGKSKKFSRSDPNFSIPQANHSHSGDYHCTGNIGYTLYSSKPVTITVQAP
Nature of the assay: SPR; fold against G1. In general terms: SPR reads the build-up and loss of mass on a sensor chip optically.

Assay [3] addresses T3, human FcγRIIIA-F158 extracellular domain protein (human, UniProt P08637 17-208).
T3 construct: extracellular domain; SPR: His-tagged, immobilised; also called hFcγRIIIA-F158; CD16a
The experiment in a line: SPR, Biacore T100, FcγR extracellular domain immobilised.

Assay [4] concerns the target T2, human FcγRIIB extracellular domain …. Nature of the assay: SPR; [lower of KD(hFcγRIIA-R131) and KD(hFcγRIIIA-F158)]/KD(hFcγRIIB).
For assay [5], the target named is T4, human FcγRIIA-R131 extracellular domain protein (human, UniProt P12318 34-217).
T4 construct: extracellular domain; SPR: His-tagged, immobilised; ELISA: biotinylated; also called hFcγRIIA-R131; CD32a
T4 sequence (looked up): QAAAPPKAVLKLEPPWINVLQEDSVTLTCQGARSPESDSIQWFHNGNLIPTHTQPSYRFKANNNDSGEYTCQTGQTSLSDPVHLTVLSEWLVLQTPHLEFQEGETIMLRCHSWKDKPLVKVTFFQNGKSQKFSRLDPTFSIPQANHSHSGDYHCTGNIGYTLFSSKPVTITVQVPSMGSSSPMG
Nature of the assay: SPR, Biacore T100, FcγR extracellular domain immobilised, 1:1 model.

Assay [6] has as its target T1, human FcγRI extracellular domain protein. The description is as above.
In assay [7] the target is T2, human FcγRIIB extracellular domain …. Described as above.
Assay [8] has the same target. Nature of the assay: SPR (refers to Table 4, Fc fragments).
For assay [9], the target named is T4, human FcγRIIA-R131 extracellular domain …. Nature of the assay: ELISA, coated antibody, biotinylated FcγR extracellular domain. How it is done: The ELISA plate was coated with 100 μL antibody at an appropriate concentration overnight, supernatant being discarded. The plate was blocked with 1% BSA in PBS for 2 hours, followed by washing with PBST (PBS with 0.05% Tween 20). Then, biotinylated FcγR extracellular domain protein (Sino Biologic Inc., Beijing China) at a concentration as appropriate was added and incubated at room temperature for 1 hour, supernatant being discarded, followed by PBST wash. Streptavidin-HRP (BD Biosciences) was added and incubated at room temperature for 1 hour for detection of biotin protein. After removal of supernatant, developing solution was added to react for 20-40 minutes, and absorbance was determined at 650 nm (A650).

T1 sequence (P12314 16-292): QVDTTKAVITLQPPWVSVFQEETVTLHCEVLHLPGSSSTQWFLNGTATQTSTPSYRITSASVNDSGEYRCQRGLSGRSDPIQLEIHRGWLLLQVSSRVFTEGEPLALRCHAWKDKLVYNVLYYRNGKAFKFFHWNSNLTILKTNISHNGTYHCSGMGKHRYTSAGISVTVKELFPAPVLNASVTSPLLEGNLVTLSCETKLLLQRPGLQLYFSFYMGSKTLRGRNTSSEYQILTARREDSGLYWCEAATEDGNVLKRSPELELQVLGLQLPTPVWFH
T3 sequence (P08637 17-208): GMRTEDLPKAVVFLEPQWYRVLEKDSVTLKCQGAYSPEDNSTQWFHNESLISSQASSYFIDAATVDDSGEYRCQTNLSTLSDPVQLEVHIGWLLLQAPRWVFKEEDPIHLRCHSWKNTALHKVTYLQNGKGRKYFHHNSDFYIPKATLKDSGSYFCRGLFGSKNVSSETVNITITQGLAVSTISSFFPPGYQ

B1: Fc fragment of heavy chain constant region G2 (hIgG2) (other)
chain: PPVAGPSVFLFPPKPKDTLMISRTPEVTCVVVDVSHEDPEVQFNWYVDGVEVHNAKTKPREEQFNSTFRVVSVLTVVHQDWLNGKEYKCKVSNKGLPAPIEKTISKTKGQPREPQVYTLPPSREEMTKNQVSLTCLVKGFYPSDIAVEWESNGQPENNYKTTPPMLDSDGSFFLYSKLTVDKSRWQQGNVFSCSVMHEALHNHYTQKSLSLSPGK
Consider B1, for which the binding result in [1] was “no binding”. For the same molecule, the “folds of increase in hFcγRIIB binding” value in assay [2] was under 0.4 fold.

B2: Fc fragment of heavy chain constant region V11(H1) (hIgG1 G237D/P238D/H268D/P271G/A330R) (other)
chain: PELLGDDSVFLFPPKPKDTLMISRTPEVTCVVVDVSDEDGEVKFNWYVDGVEVHNAKTKPREEQYNSTYRVVSVLTVLHQDWLNGKEYKCKVSNKALPRPIEKTISKAKGQPREPQVYTLPPSRDELTKNQVSLTCLVKGFYPSDIAVEWESNGQPENNYKTTPPVLDSDGSFFLYSKLTVDKSRWQQGNVFSCSVMHEALHNHYTQKSLSLSPGK
By Kd is commonly meant the constant that tells how readily two partners part at equilibrium. Take B2: the binding result in assay [3] is listed as “no binding”. In assay [2], the “folds of increase in hFcγRIIB binding” value was found to be 94 fold. In addition, the I/A ratio in [4] came out at 271. Moreover, the Kd was 3800 nM in [5], 230 nM in assay [6] and 14 nM in assay [7].

B3: Anti-mCD40-hIgG2-GASDALIE (antibody)
heavy: EVQLVESDGGLVQPGRSLKLPCAASGFTFSDYYMAWVRQAPTKGLEWVASISYDGSSTYYRDSVKGRFTISRDNAKSTLYLQMDSLRSEDTATYYCGRHSSYFDYWGQGVMVTVSSASTKGPSVFPLAPCSRSTSESTAALGCLVKDYFPEPVTVSWNSGALTSGVHTFPAVLQSSGLYSLSSVVTVPSSNFGTQTYTCNVDHKPSNTKVDKTVERKCCVECPPCPAPELLAGPDVFLFPPKPKDTLMISRTPEVTCVVVDVSHEDPEVKFNWYVDGVEVHNAKTKPREEQYNSTYRVVSVLTVLHQDWLNGKEYKCKVSNKALPLPEEKTISKAKGQPREPQVYTLPPSRDELTKNQVSLTCLVKGFYPSDIAVEWESNGQPENNYKTTPPVLDSDGSFFLYSKLTVDKSRWQQGNVFSCSVMHEALHNHYTQKSLSLSPGK
light: DTVLTQSPALAVSPGERVTISCRASDSVSTLMHWYQQKPGQQPKLLIYLASHLESGVPARFSGSGSGTDFTLTIDPVEADDTATYYCQQSWNDPWTFGGGTKLELKRTVAAPSVFIFPPSDEQLKSGTASVVCLLNNFYPREAKVQWKVDNALQSGNSQESVTEQDSKDSTYSLSSTLTLSKADYEKHKVYACEVTHQGLSSPVTKSFNRGEC
notes: Chimeric anti-murine CD40 antibody
Regarding B3, the binding result in assay [8] is “binds”.

B4: Anti-mCD40-hIgG2-NA (antibody)
heavy: EVQLVESDGGLVQPGRSLKLPCAASGFTFSDYYMAWVRQAPTKGLEWVASISYDGSSTYYRDSVKGRFTISRDNAKSTLYLQMDSLRSEDTATYYCGRHSSYFDYWGQGVMVTVSSASTKGPSVFPLAPCSRSTSESTAALGCLVKDYFPEPVTVSWNSGALTSGVHTFPAVLQSSGLYSLSSVVTVPSSNFGTQTYTCNVDHKPSNTKVDKTVERKCCVECPPCPAPPVAGPSVFLFPPKPKDTLMISRTPEVTCVVVDVSHEDPEVQFNWYVDGVEVHNAKTKPREEQFASTFRVVSVLTVVHQDWLNGKEYKCKVSNKGLPAPIEKTISKTKGQPREPQVYTLPPSREEMTKNQVSLTCLVKGFYPSDIAVEWESNGQPENNYKTTPPMLDSDGSFFLYSKLTVDKSRWQQGNVFSCSVMHEALHNHYTQKSLSLSPGK
light: B3 light
notes: Chimeric anti-murine CD40 antibody, heavy chain constant region G2-NA (N297A)
On to B4, for which the binding result in assay [9] is on record as “no binding”.
